Laboratory results from the supplement of paper PMC10724198.
± gives the standard deviation of the averaged measurements.

Test system: Saccharomyces cerevisiae
Assay: protein stability index of tFT-peptide fusion (C-terminal peptide) (PSI (0-1 scale)); higher = more stable (slower turnover)
Conditions: genetic background: wild type; temperature: 30 C
Protocol: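 Multiplexed protein stability (MPS) profiling in S. cerevisiae. Random 12-aa peptides (tFT-X12 library) are fused to the C-terminus of a sfGFP-mCherry tandem fluorescent timer, after mCherry and a GGGS linker. Cells are FACS-sorted into 8 mCherry/sfGFP bins and deep-sequenced. The protein stability index (PSI) is the read-weighted bin average, scaled from 0 (unstable) to 1 (stable). Only peptides with >10 reads are reported; cells were grown at 30 °C in SC-His with glucose.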
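Also: PSI is a weighted mean of sequencing reads over stability bins, variants kept only with over 10 reads, mCherry proximal and sfGFP distal, peptide attached via GGGS linker.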

| Sequence | protein stability index |
| --- | --- |
| FGSVFMSFFLCS | 0.522 ± 0.037 |
| FGTKHFGGWGGV | 0.745 ± 0.015 |
| FGVGGAVGWRLR | 0.677 ± 0.052 |
| FGVVLEGAGGGG | 0.702 ± 0.07 |
| FHDVVSKKHSLK | 0.705 ± 0.032 |
| FHLPLSSHDPLL | 0.747 ± 0.11 |
| FHSLTDSSPPGL | 0.649 ± 0.022 |
| FIFPPLFFSPVL | 0.788 ± 0.13 |
| FIGGCYCSVKSL | 0.705 ± 0.047 |
| FILCFPSLLSSL | 0.603 ± 0.022 |
| FISEYPQCAALG | 0.738 ± 0.078 |
| FKSYNNDLQDRI | 0.728 ± 0.16 |
| FKVILGEFPVAW | 0.674 ± 0.0086 |
| FLASPTPSHPRL | 0.787 ± 0.091 |
| FLDSFCFFPPLP | 0.778 ± 0.014 |
| FLFKLPPPPRCH | 0.678 ± 0.1 |
| FLFLFGCSPFFG | 0.727 ± 0.057 |
| FLIPPPFALPSL | 0.717 ± 0.08 |
| FLISFCFVGLVL | 0.55 ± 0.014 |
| FLLIFHSSPLPV | 0.574 ± 0.05 |
| FLLPPPPRASSF | 0.736 ± 0.066 |
| FLLRFSPASRAV | 0.691 ± 0.019 |
| FLLVSLKQCHGR | 0.73 ± 0.036 |
| FLMDSQGPWICR | 0.726 ± 0.076 |
| FLPPSVYAHPFP | 0.743 ± 0.083 |
| FLQHPPHVLHPY | 0.7013 ± 0.0069 |

| Sequence | protein stability index |
| --- | --- |
| FLRILRLTPRRP | 0.728 ± 0.036 |
| FLRVVGFVCRWG | 0.679 ± 0.025 |
| FLRYVLLPSLFV | 0.499 ± 0.01 |
| FLSFTSLRTKGL | 0.743 ± 0.054 |
| FLSHRMNMSGLA | 0.658 ± 0.016 |
| FLSRFLSCLFYF | 0.576 ± 0.028 |
| FLTSFVDLCGFY | 0.682 ± 0.0082 |
| FLVFFRRPSRFF | 0.5856 ± 0.0058 |
| FLVKFYKYPSTR | 0.707 ± 0.12 |
| FMLRTCFLTTSK | 0.718 ± 0.027 |
| FMMRPPVSSKVS | 0.554 ± 0.0048 |
| FNETVLYIVPNG | 0.639 ± 0.065 |
| FNINRCLEGAHK | 0.717 ± 0.035 |
| FNVSNPVSLQTG | 0.641 ± 0.021 |
| FPCGARPFPLAF | 0.704 ± 0.049 |
| FPELLFLFSPSF | 0.723 ± 0.022 |
| FPFGRMNVSGGC | 0.701 ± 0.026 |
| FPHLAPTTHLLP | 0.673 ± 0.1 |
| FPLGRCPHIPPH | 0.664 ± 0.013 |
| FPLSLSFLSPLV | 0.705 ± 0.12 |
| FPPLCSSSPPLP | 0.7131 ± 0.0069 |
| FPPRLPPSPPLP | 0.666 ± 0.036 |
| FPRFACVLPAFH | 0.671 ± 0.081 |
| FPSPPPPAPLPP | 0.763 ± 0.039 |
| FPTPPPGPGPPP | 0.641 ± 0.03 |
| FPTSRAGSLIRR | 0.678 ± 0.053 |

| Sequence | protein stability index |
| --- | --- |
| FPVARGRHWLSR | 0.732 ± 0.12 |
| FPVPPFFLSGHL | 0.651 ± 0.11 |
| FPVPPPPHPPLH | 0.675 ± 0.027 |
| FPYPFSSSCFSS | 0.651 ± 0.062 |
| FQGPPFKHVNSV | 0.701 ± 0.059 |
| FQIRGFFGLMAD | 0.754 ± 0.046 |
| FRASLFFVWLPS | 0.59 ± 0.085 |
| FRGGLLSLSAWV | 0.699 ± 0.02 |
| FRGRSSLSTSCG | 0.69 ± 0.023 |
| FRHSSAVLAPGV | 0.6896 ± 0.0057 |
| FRLPMIRVCWSL | 0.569 ± 0.025 |
| FRPCPLNSLSRY | 0.724 ± 0.021 |
| FRPFLPPSRTFS | 0.676 ± 0.008 |
| FRPLPFYRLSPP | 0.727 ± 0.021 |
| FRPLVDVKFPRY | 0.658 ± 0.13 |
| FRPNPCLSPCSA | 0.643 ± 0.1 |
| FRSENSWLLCSW | 0.786 ± 0.048 |
| FRSPRLSPSFFF | 0.717 ± 0.027 |
| FRSTKELLQLGR | 0.664 ± 0.055 |
| FRVSVRTVSSLR | 0.654 ± 0.037 |
| FSELTGFMSVRG | 0.652 ± 0.025 |
| FSFARFFSWSFS | 0.694 ± 0.13 |
| FSFFQFSASFFL | 0.699 ± 0.039 |
| FSGFGERFMISS | 0.6917 ± 0.0033 |
| FSGRGSSPVAVF | 0.544 ± 0.035 |
| FSHLLPAESPYP | 0.654 ± 0.086 |

| Sequence | protein stability index |
| --- | --- |
| FSKDDFEVTPNS | 0.819 ± 0.079 |
| FSLLPYFPYALP | 0.739 ± 0.089 |
| FSLVHSFRLSFC | 0.599 ± 0.012 |
| FSMAHLDGGHRR | 0.676 ± 0.013 |
| FSRAPHFSGRLC | 0.502 ± 0.0087 |
| FSSCPPFRPFPL | 0.787 ± 0.04 |
| FSSTCLSSRFAI | 0.684 ± 0.07 |
| FSVDASLPLSSV | 0.6749 ± 0.0063 |
| FSVPLMLTFPRD | 0.721 ± 0.054 |
| FSVSLACYPSMC | 0.698 ± 0.075 |
| FTCRRYVGFMGG | 0.798 ± 0.025 |
| FTGAVGPCTCRY | 0.731 ± 0.023 |
| FTSLCLLFLFSL | 0.616 ± 0.085 |
| FTSRGLLILGFM | 0.619 ± 0.008 |
| FTTAGSGWESVW | 0.636 ± 0.041 |
| FVASRFLRCLVL | 0.495 ± 0.017 |
| FVFQYVVGNFAI | 0.617 ± 0.051 |
| FVISRPRLHSFC | 0.5663 ± 0.0032 |
| FVLGGLHAGYVL | 0.7146 ± 0.0038 |
| FVLRCLGLVLPV | 0.593 ± 0.077 |
| FVLRFRGMRPSN | 0.673 ± 0.019 |
| FVLRFVLSLVFF | 0.494 ± 0.083 |
| FVPLFVFSCSRS | 0.5 ± 0.014 |
| FVSLEVLFISSL | 0.5609 ± 0.0016 |
| FVVGGGLRMGAG | 0.62253 ± 0.00043 |
| FVVLALKESFSV | 0.605 ± 0.057 |

| Sequence | protein stability index |
| --- | --- |
| FWCMLLAPFVNV | 0.657 ± 0.11 |
| FWDSCAVSLYLR | 0.632 ± 0.041 |
| FWVASREVGRAY | 0.608 ± 0.041 |
| FYRPGNVLDGVF | 0.705 ± 0.075 |
| GAARTPGRARTL | 0.685 ± 0.049 |
| GACCRHERIREE | 0.761 ± 0.084 |
| GACGSTLPASSR | 0.668 ± 0.058 |
| GADGARGVPGAG | 0.662 ± 0.018 |
| GADGYSCGLVIT | 0.539 ± 0.11 |
| GAENPRRLRART | 0.691 ± 0.0079 |
| GAGEGAQEDPAS | 0.705 ± 0.013 |
| GAGLPSGLRIGL | 0.647 ± 0.025 |
| GAGWGWGRKGSR | 0.751 ± 0.089 |
| GAHATVPSMVTL | 0.698 ± 0.092 |
| GALVGWAMALGW | 0.679 ± 0.033 |
| GAMLAGRQGGGL | 0.655 ± 0.0089 |
| GANKQHLARKTE | 0.7254 ± 0.0069 |
| GAPSHVTPLPQI | 0.686 ± 0.047 |
| GARGGEGVSGGA | 0.701 ± 0.012 |
| GARPTKCCSYGT | 0.683 ± 0.011 |
| GARTPVPRHRVH | 0.6396 ± 0.0011 |
| GARWGWGRKGSR | 0.692 ± 0.072 |
| GASGGGRGNLEV | 0.727 ± 0.13 |
| GAVARFRERALS | 0.525 ± 0.0098 |
| GAVLSYIAPTPL | 0.7404 ± 0.0055 |
| GAVVLAGWGVLK | 0.718 ± 0.028 |

| Sequence | protein stability index |
| --- | --- |
| GAVWGRLTGSAH | 0.6469 ± 0.005 |
| GAVYHGGMASVR | 0.746 ± 0.054 |
| GAWFTSSPVFGS | 0.731 ± 0.034 |
| GCAGRHRWVGEW | 0.6649 ± 0.0027 |
| GCAITVKRLWFG | 0.656 ± 0.076 |
| GCCGQGLPWNPP | 0.562 ± 0.0077 |
| GCFARSEKLSGL | 0.687 ± 0.1 |
| GCGAVEGFGVGW | 0.625 ± 0.03 |
| GCGGAWGVWDGV | 0.729 ± 0.072 |
| GCGLVGVVTGRD | 0.71 ± 0.14 |
| GCIELTGHLGSF | 0.7059 ± 0.0036 |
| GCLWRGARALGP | 0.687 ± 0.075 |
| GCMGGYAFFSGG | 0.571 |
| GCPRGGVGSRGV | 0.659 ± 0.098 |
| GCRRYLFLFFGC | 0.6 ± 0.047 |
| GCVGCNRWWPGW | 0.721 ± 0.042 |
| GCVGIGFSPGGG | 0.656 ± 0.014 |
| GDGAGGGFGLVV | 0.724 ± 0.097 |
| GDGNERPLGRRD | 0.643 ± 0.052 |
| GDHPPMETISRP | 0.734 ± 0.095 |
| GDIGAGMGVVGE | 0.641 ± 0.0049 |
| GDKQKKNEKNKE | 0.681 ± 0.048 |
| GDNRGLTRVGIE | 0.718 ± 0.053 |
| GDPADGACGPTR | 0.8 ± 0.062 |
| GDRNNLRCWNAS | 0.712 ± 0.11 |
